US5837813, “Fibronectin Type III polypeptides” (La Jolla Cancer Research Foundation, dated 1998)

Experiments:
[1] = target: T1, human fibronectin (human, UniProt P02751); assay: solid-phase competition, 125I-14 kDa fragment on coated fibronectin
[2] = target: T1, human fibronectin; assay: solid-phase competition, 125I-fibronectin on coated fibronectin

Q: For NAPQPSHISKYILRWRPKNSVGRWKEATIPG [polypeptide P1], which IC50 [1] is on record?
A: Its IC50 is 1000 nM.

Q: And the IC50 [2]?
A: Its IC50 is ~1000 nM.
